Source: patent US20190010233A1 (JIANGSU HYAMAB PHARMACEUTICAL, published 2019)
Numbering of substitutions follows the chain as printed.

B1: chimeric anti-PD-L1 antibody 105C5D7 (antibody, V domains shown)
VH: EVQLVESGGGLVQPGGSLRLSCAASGFTFSSYWMSWVRQAPGKGLEWVANIKQDGNEKYYVDSVKGRFTISRDNAKNSLYLQMNSLRAEDTAVYYCARNIKWGDAFDIWGQGTMVTVSS
VL: DIQMTQSPSSLSASVGDRVTITCRASQSISSYLNWYQQKPGKAPKLLIYAASSLQSGVPSRFSGSGSGTDFTLTISSLQPEDFAIYSCQQSYSIPLTFGGGTKVEIK
notes: Purified from hybridoma of Harbour H2L2 mice: human variable regions, rat constant regions
B2: chimeric anti-PD-L1 antibody 78A11F6 (antibody, V domains shown)
VH: EVQLVESGGGLVQPGGSLRLSCAASGITFSSYWMSWVRQTPGKGLEWVANIKQDGSEKYYVKSVKGRFTISRDNAKNSLYLQMNSLRAEDTAVYYCVRDRAVPGTGAFDIWGQGTMVIVSS
VL: DIQMTQSPSTLSASVGDRVTITCRASQSISNWLAWYQQKPGKAPKLLIYKASSLESGVPSRFSGSGSGTEFTLTISSLQPDDFATYYCQQYDSSLFTFGQGTKLEIK
notes: as for B1
B3: chimeric anti-PD-L1 antibody 73D3G2 (antibody, V domains shown)
VH: EVQLVESGGGLVQPGGSLRLSCAASGFTFNTYWMNWVRQAPGRGLEWVANIKQDGGEKYYVDSVKGRFTISRDNAKNSLYLQMNSLRAEDTAMYYCARDGRSWYPDAFDIWGQGTVVTVSS
VL: DIQMTQSPSTLSASVGDRVTITCRASQSISTWLAWYQQKLGKAPKLLIYEVSILESGVPSRFSGSGSGTEFTLTISSLQPDDFATYYCQQYHSFSSFGGGTRVEIK
notes: as for B1
B4: chimeric anti-PD-L1 antibody 73G11B3 (antibody, V domains shown)
VH: B2 VH with A23V, A24V, I27F, K62D, F68L, F108L, I118T
VL: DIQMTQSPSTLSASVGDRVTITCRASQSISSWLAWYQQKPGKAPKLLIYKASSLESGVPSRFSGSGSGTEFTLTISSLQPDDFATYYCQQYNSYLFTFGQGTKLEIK
notes: as for B1
B5: chimeric anti-PD-L1 antibody 127D2F3 (antibody, V domains shown)
VH: EVQLVESGGGLVQPGGSLRLSCVASGFTFSSYWMSWVRQAPGKGLEWVANIKQDGSEKYYVDSVKGRLTISRDNAKNSLYLQMKSLRAEDTAVYYCARDPIYSSYFDYWGQGILVTVSS
VL: B1 VL with S31N, I85A, S87Y, S93G, L96F, G100P, E105D
notes: as for B1
B6: chimeric anti-PD-L1 antibody 192D9E7 (antibody, V domains shown)
VH: EVQLVESGGGLVQPGGSLRLSCAASGFTFSSYWMSWVRQAPGKGLEWVADIKQDGSEKYYVDSVKGRFTISRDNAKNSLYLQMNSLRAEDTAVYYCTRDKPHWGGVMDAWGQGTSVTVSS
VL: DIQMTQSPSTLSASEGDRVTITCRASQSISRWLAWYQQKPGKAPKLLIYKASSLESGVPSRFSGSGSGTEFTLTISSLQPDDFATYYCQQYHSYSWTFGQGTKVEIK
notes: as for B1

target: T1, cyno PD-L1^ECD-hFc protein (cyno, UniProt G7PSE7 19-239); assay: ELISA, 10 nM mAb
T1 construct: also called Cyno Monkey PD-L1^ECD-hFc
T1 sequence (G7PSE7 entry or part of it limits assumed): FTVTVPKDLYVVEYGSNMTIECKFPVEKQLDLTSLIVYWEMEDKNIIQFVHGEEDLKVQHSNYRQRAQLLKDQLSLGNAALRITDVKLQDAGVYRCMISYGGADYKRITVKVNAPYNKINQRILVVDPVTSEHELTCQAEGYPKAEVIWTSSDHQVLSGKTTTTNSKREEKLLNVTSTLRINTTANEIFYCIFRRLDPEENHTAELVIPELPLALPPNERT
Protocol: (§1) 100 μL of the diluted recombinant proteins were added to each well of 96-well plate. The plates were sealed with plastic film and incubated at 4° C. overnight. The plates were washed twice with wash buffer (PBS+0.01% (v/v) Tween20), and incubated with blocking buffer (PBS+0.01% (v/v) Tween20+1% (w/w) BSA) at room temperature for 2 hours. The blocking buffer was aspirated away, and 100 μL of purified anti-PD-L1 antibodies were added to each well and incubated for 2 hours at 37° C. The plates were washed three times with wash buffer (PBS+0.01% (v/v) Tween20). HRP-conjugated secondary antibody (Sigma) was added to each well and incubated for 2 hours at 37° C. After the plates were washed three times with wash buffer, 100 μL TMB substrate were added to each well, and the plates were incubated for 30 minutes at room temperature. 100 μL stop solution (0.1N HCl) was added to each well to stop the reaction.

In order of rising OD450 nm:
1. B1  1.56
2. B2  2.07
3. B3  2.09

target: T2, human PD-L1^ECD-hFc protein (human, UniProt Q9NZQ7 19-239, biotinylated in the PD-1 binding ELISA (Table 3) and in the Octet assay (Table 12)); assay: ELISA, 30 nM mAb
T2 construct: The plain and the biotinylated protein are kept as one molecule; also called PD-L1-hFc; Immunogen A; not shown: human IgG Fc fragment (hFc)
T2 sequence (Q9NZQ7 19-239): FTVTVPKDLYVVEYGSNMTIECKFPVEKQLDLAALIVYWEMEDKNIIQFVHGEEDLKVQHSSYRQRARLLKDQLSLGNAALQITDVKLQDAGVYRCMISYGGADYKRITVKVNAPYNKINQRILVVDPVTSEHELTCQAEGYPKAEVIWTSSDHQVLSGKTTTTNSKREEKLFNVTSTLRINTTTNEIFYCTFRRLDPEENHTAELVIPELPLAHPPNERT
Protocol: as §1

In order of falling OD450 nm:
1. B2  1.95
2. B3  1.81
3. B1  1.53

target: T1, cyno PD-L1^ECD-hFc protein; assay: ELISA, 30 nM mAb
Protocol: as §1

In order of falling OD450 nm:
1. B2  2.06
2. B3  1.81
3. B1  1.53

target: T2, human PD-L1^ECD-hFc protein; assay: ELISA, 0.001 nM mAb
Protocol: as §1

In order of rising OD450 nm:
1. B4  0.21
2. B5  0.24
3. B6  0.25

target: T2, human PD-L1^ECD-hFc protein; assay: ELISA, 0.041 nM mAb
Protocol: as §1

In order of rising OD450 nm:
1. B1  0.34
2. B3  0.36
3. B2  0.37

target: T1, cyno PD-L1^ECD-hFc protein; assay: ELISA, 0.041 nM mAb
Protocol: as §1

In order of rising OD450 nm:
1. B1  0.34
2. B3  0.36
3. B2  0.45

target: T3, full length human PD-L1 on cells (human, UniProt Q9NZQ7 19-290); assay: cell-based or functional assay
T3 sequence (Q9NZQ7 19-290 limits assumed): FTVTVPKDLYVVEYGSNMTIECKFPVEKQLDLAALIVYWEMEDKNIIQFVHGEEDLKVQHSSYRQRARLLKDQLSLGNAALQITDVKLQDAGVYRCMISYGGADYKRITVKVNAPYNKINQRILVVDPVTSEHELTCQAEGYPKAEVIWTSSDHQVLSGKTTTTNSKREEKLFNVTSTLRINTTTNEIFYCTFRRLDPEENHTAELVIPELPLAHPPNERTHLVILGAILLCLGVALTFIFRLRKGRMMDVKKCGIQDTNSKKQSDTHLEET

In order of falling “IFN-γ (pg/mL), MLR, 0.001 µg/mL mAb” value:
1. B5  6040 pg/mL
2. B6  4730 pg/mL
3. B4  3340 pg/mL

In order of falling “IFN-γ (pg/mL), MLR, 0.01 µg/mL mAb” value:
1. B6  8100 pg/mL
2. B5  6280 pg/mL
3. B4  3390 pg/mL

In order of rising “IFN-γ (pg/mL), MLR, 0.1 µg/mL mAb” value:
1. B4  7480 pg/mL
2. B5  8760 pg/mL
3. B6  9060 pg/mL

In order of rising “IFN-γ (pg/mL), MLR, 1 µg/mL mAb” value:
1. B6  12400 pg/mL
2. B5  12600 pg/mL
3. B4  16400 pg/mL

target: T3, full length human PD-L1 on cells; assay: FACS CHO-K1-hPD-L1, 1 nM mAb

In order of falling Mean fluorescence intensity:
1. B4  107
2. B6  97.6
3. B5  88.5

target: T4, full length cyno PD-L1 on cells (cyno, UniProt G7PSE7 19-290); assay: FACS CHO-K1-cPD-L1, 10 nM mAb
T4 construct: also called CHO-K1-cPD-L1
T4 sequence (G7PSE7 entry or part of it limits assumed): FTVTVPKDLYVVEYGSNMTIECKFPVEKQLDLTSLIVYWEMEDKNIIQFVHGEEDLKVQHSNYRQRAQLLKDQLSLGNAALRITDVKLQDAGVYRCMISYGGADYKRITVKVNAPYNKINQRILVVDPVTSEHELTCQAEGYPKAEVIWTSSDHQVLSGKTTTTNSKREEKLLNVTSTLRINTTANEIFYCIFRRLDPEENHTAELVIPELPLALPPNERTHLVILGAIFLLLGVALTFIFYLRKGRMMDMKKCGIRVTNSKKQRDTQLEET
Protocol: (§2) Other CHO-K1 were stably transfected with a pIRES plasmid containing the nucleic acid sequence encoding full length cyno PD-L1 to generate CHO-K1 cells stably expressing cyno PD-L1 (herein referred to as CHO-K1-cPD-L1 cells). […] The culture media was aspirated, and the cells were washed twice with HBSS (Hanks Balanced Salt Solution, Invitrogen). The cells were treated with enzyme-free cell dissociation solution (Versene solution, Invitrogen) and collected. The cells were then washed twice with HBSS, cell counts were determined, and cells were resuspended with HBSS at 2×10⁶ cells/mL. Goat serum was added to the cell suspension to a final concentration of 1%, and the cells were blocked for 30 minutes on ice and then washed twice with HBSS. The cells were collected after centrifugation and resuspended in FACS buffer (HBSS+1% BSA, v/v) at 2×10⁶ cells/mL. 100 μL of the cell suspension were then added to each well of 96-well plate. 100 μL of purified anti-PD-L1 antibodies from Example 2 were added to each well of the 96-well plate and incubated for 2 hours on ice. […] The samples were washed three times with FACS buffer, and 100 μL fixation buffer (4% paraformaldehyde v/v) were added to each well and incubated for 10 minutes. The cells were then washed twice with FACS buffer and resuspended in 100 μL FACS buffer. The mean fluorescence intensity (MFI) was determined using FACS Calibur (BD), and the results are shown in FIGS. 7-8 and in Tables 10-11.

In order of falling Mean fluorescence intensity:
1. B5  105
2. B4  99.2
3. B6  82.3

target: T3, full length human PD-L1 on cells; assay: FACS CHO-K1-hPD-L1, 0.14 nM mAb
Protocol: as §2

In order of falling Mean fluorescence intensity:
1. B1  73.2
2. B2  51.5
3. B3  44.3

target: T3, full length human PD-L1 on cells; assay: FACS CHO-K1-hPD-L1, 0.41 nM mAb
Protocol: as §2

In order of falling Mean fluorescence intensity:
1. B1  137
2. B2  105
3. B3  87

target: T4, full length cyno PD-L1 on cells; assay: FACS CHO-K1-cPD-L1, 0.001 nM mAb as printed (second such column)
Protocol: as §2

In order of falling Mean fluorescence intensity:
1. B4  1.78
2. B5  1.78
3. B6  1.75

target: T2, human PD-L1^ECD-hFc protein; assay: ELISA receptor-ligand blocking assay: PD-L1^ECD-hFc coated on the plate, antibody titrated, blocked ligand biotinylated PD-1^ECD, HRP-streptavidin, inhibition rate (%)
Protocol: Purified PD-L1^ECD-hFc (Example 2) was diluted with PBS to a final concentration of 1.0 μg/mL, and 100 μL diluted PD-L1^ECD-hFc were added to each well of a 96-well plate that was then sealed with plastic film and incubated at 4° C. overnight. The plate was washed twice with wash buffer (PBS+0.01% (v/v) Tween 20) and incubated with blocking buffer (PBS+[…]) at room temperature for 2 hours. The blocking buffer was aspirated, and 50 μL purified anti-PD-L1 antibodies from Example 2 were added to each well of 96-well plate. […] The plate was washed three times with wash buffer (PBS+0.01% (v/v) Tween 20). 100 μL HRP-conjugated streptavidin (Sigma) were then added to each well and incubated at 37° C. for 2 hours. The plate was then washed three times with wash buffer, and 100 μL TMB substrate were added to each well. After 30 minutes of incubation at room temperature, the reaction was stopped by adding 100 μL stop solution (0.1N HCl).

In order of falling “IC50 (read off the curve)” value:
1. B3  ~0.5 nM
2. B4  ~0.4 nM
3. B5  ~0.3 nM
